Experimental data reported in the supplement of paper PMC10567573.
± gives the standard deviation.

Assay: protein stability index of a GFP-peptide fusion (GPS, HEK-293T) (PSI 1-6); higher = more stable
Settings: c terminus: a fixed tail appended
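Further: 24-mer peptide tiles fused after GFP, lentivirally expressed, FACS-sorted into six equal bins by GFP/DsRed ratio, decoded by Illumina sequencing, PSI is the read-weighted mean bin number.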

Sequence	protein stability index (treatment: DMSO)	protein stability index (treatment: MLN4924 1 uM, 8 h)
IAILLYKSKPDRKRAESDSRKSSI [PTPRD]	1.75 ± 0.23	1.92 ± 0.44
IAMAVYTYLRLIVDHHGTAQLQAL [INTS3]	3.35 ± 0.51	3.17 ± 0.14
ICQGDGSSCTHVTGNYRKGNAHLG [ADAMTSL2]	3.74 ± 0.33	3.92 ± 0.26
IDAIYSVIDDAKQYVYIAVMDYLP [PLD5]	3.55 ± 0.11	3.73 ± 0.42
IDKEIELHRILHHKHVVQFYHYFE [PLK2]	2.12 ± 0.29	2.18 ± 0.38
IDKGDESWVTDMCKVGASSDPCGQ [PNLIPRP1]	4.52 ± 0.48	4.66 ± 0.36
IDRMFPEMSIHLSRPNGTSAMLLV [MED27]	2.65 ± 0.71	2.75 ± 0.52
IDSHLLLSVLPQLEFKLKSNDNEE [PDS5B]	3.32 ± 0.27	3.09 ± 0.096
IDYGANVNQPNNNGFTPLHFAAAS [ANKRD44]	3.1 ± 0.19	3 ± 0.26
IELQAQHSMRNSLESTLAETEARY [KRT36]	4.38 ± 0.15	4.23 ± 0.23
IESAHRSRIKVLETSYQQREERLR [FBF1]	3.85 ± 0.15	3.82 ± 0.33
IEVNGENVEDASHEEVVEKVKKSG [PDZK1]	5.63 ± 0.16	5.34 ± 0.38
IFQEKHVNLLHIESRKSKRRNSEF [TPH1]	3.06 ± 0.25	3.27 ± 0.28
IFQMVIICLMCVHSLERAGSKQYS [SMG5]	3.21 ± 0.28	3.27 ± 0.48
IGKLLYLEDFFVMSDYRGFGIGSE [SAT1]	2.85 ± 0.33	2.9 ± 0.81
IHSREKRGDSVKVENPSTASHSLS [ZNF649]	4.97 ± 0.26	5.22 ± 0.15
IHTGIKPHQCSECGRAFSRKSLLV [ZNF649]	2.56 ± 0.37	2.18 ± 0.4
IIEVLSNALSKSSAPPITPECRQV [CHGB]	2.29 ± 0.54	2.32 ± 0.22
IKAWMDRYEEANNNQYSEGVQREA [KMT2E]	3.77 ± 0.14	4.05 ± 0.28
ILDTAGQAEFTAMRDQYMRAGEGF [RIT1]	3.44 ± 0.29	3.6 ± 0.23
ILKQLIADVTLDPETAHPNLVLSE [TRIM39]	2.67 ± 0.085	2.81 ± 0.29
ILTSQPGKEVVKQLEEGLKDTDLA [M1AP]	5.05 ± 0.28	5.17 ± 0.17

Sequence	protein stability index (treatment: DMSO)	protein stability index (treatment: MLN4924 1 uM, 8 h)
IPGKVIDEIYRVLRYVNSTRAPQR [FBXO28]	2.2 ± 0.21	2.41 ± 0.28
IPQQQGMRPPMPPHGQYGGHHQGM [ZNF207]	3.71 ± 0.24	3.88 ± 0.11
IQASAGVISKKAKVKVPQKTAGKE [ZNF75A]	4.6 ± 0.16	4.79 ± 0.27
IQKAYDELRLQSEAFKKHSLDLLS [CCDC89]	2.68 ± 0.31	2.91 ± 0.23
IRARELQNIYKCIMLKNISQDERL [IQUB]	2.25 ± 0.57	2.15 ± 0.54
IRGPAGNNDCRIYVGNLPPDIRTK [SRSF1]	3.43 ± 0.25	3.38 ± 0.27
IRNRGYNLIYRSTRHLKRLALMIQ [TMEM192]	3.02 ± 0.16	2.97 ± 0.38
ISLFFLIIYMGSFMLMLLVLGIQV [CDS1]	3.18 ± 0.23	3.33 ± 0.11
ISSIEAQLSELRSEMECQNQEYKM [KRT13]	4.76 ± 0.23	4.69 ± 0.29
ISVILPTVHEVDIFRCFCPVFLHS [DENND6A]	3.07 ± 0.19	3 ± 0.56
ITNVDLREYLSEEVQAVHKNTTYD [USP39]	4.2 ± 0.24	4.17 ± 0.19
ITTIGYGHAAPGTDAGKAFCMFYA [KCNK9]	2.9 ± 0.49	2.8 ± 0.56
ITYPPGVKEISDKISKEEMVRRLK [PDS5B]	3.49 ± 0.36	3.73 ± 0.44
KALWEDKTSLWEEENALWEEERAF [CCDC70]	3.79 ± 0.18	3.87 ± 0.14
KARVKPPEGYDVVAVYPNAKVELV [PDLIM4]	3.02 ± 0.18	3.31 ± 0.28
KCASDIFQASNPYLPTRGGTTMAS [TRIM55]	2.89 ± 0.22	2.86 ± 0.16
KCGNCQTKLHDIDGVPHLILIASR [KMT5A]	2.35 ± 0.46	2.51 ± 0.41
KDGEYCWRWTGFNFGFDLLVTYTN [GMCL1]	3.44 ± 0.41	2.89 ± 0.46
KDLFEEKIKKSPLTICYPEYAGSN [GNAI1]	3.96 ± 0.36	4.09 ± 0.21
KDLNENLAATQGLAHMIAECKKLF [DLC1]	2.39 ± 0.45	2.3 ± 0.34
KDMNFLKRYAGREEHWVGLKKEPG [CD69]	3.61 ± 0.16	3.79 ± 0.21
KDWLEGTVRGATGIFPLSFVKILK [NCF4]	2.49 ± 0.5	2.38 ± 0.52

Sequence	protein stability index (treatment: DMSO)	protein stability index (treatment: MLN4924 1 uM, 8 h)
KEAGVQKLILTSSASVIFEGVDIK [NSDHL]	2.99 ± 0.3	2.84 ± 0.19
KEAVLAMEKKSKPKNSVWKRLKSP [RIT1]	4.23 ± 0.21	4.19 ± 0.27
KEFTLLLSAANVCLDPIIYFFLCQ [P2RY14]	3.06 ± 0.56	2.97 ± 0.17
KEKDSPFKPKLYKGDRGLPLEGSA [RBBP5]	4.57 ± 0.34	4.32 ± 0.23
KEQDVEKELRDGGEQDTWAGEGAE [NFE2L1]	–	5.83 ± 0.073
KESESEAKVDGETASDSESRAESA [CDS2]	5.6 ± 0.17	5.34 ± 0.34
KETAHDLDVKSPPEPRSEVVPARL [RIPK4]	4.8 ± 1.2	4.88 ± 0.86
KGNPEEEDVDTSQVLYEWEQGFSQ [CTNNB1]	5.11 ± 0.25	5.25 ± 0.28
KITDFQLHASTVKRYGLGAHRGRL [CPXM2]	3.133 ± 0.018	3.22 ± 0.53
KIVLCAVSHVFMLLFNVKSPTDIQ [RHOBTB3]	3.16 ± 0.17	3.09 ± 0.22
KKCVKKFVEYCDVNNDKSISVQEL [SMOC2]	3.57 ± 0.21	3.68 ± 0.49
KKIRQVIRKYNYVAMDTEFPGVVA [CNOT7]	2.79 ± 0.35	2.24 ± 0.28
KKMSCQQFIANLDQLNDGQDFAKD [PSD2]	4.41 ± 0.22	4.4 ± 0.2
KLCKKGLAATTSMAYAKLMLTVMT [FANCE]	2.33 ± 0.52	2.22 ± 0.43
KLGPALKIYEYHVKPLQTKHLKNN [SAMD13]	2.46 ± 0.14	2.54 ± 0.22
KLQKEKEELERRFEDEVKRLGWQQ [MTUS2]	4.36 ± 0.35	4.6 ± 0.32
KLSAKSLQTLRSFSHTLVSLSLFG [ZER1]	3 ± 0.45	2.95 ± 0.43
KLSPKKTWEGFIGGFFATVVFGLL [CDS2]	2.33 ± 0.43	2.01 ± 0.28
KPTEPSVPVQPLLPESLARSLLPS [FBF1]	4.33 ± 0.11	4.43 ± 0.26
KQIKAGAYDFPSPEWDTVTPEAKD [CAMK2A]	5.34 ± 0.26	5.27 ± 0.18
KQQWEIMHKHNETSQKIAARAFAQ [RSPH3]	3.41 ± 0.2	3.38 ± 0.14
